Target: the molecule itself
Assay: solution-state NMR structure; 5 mM protein, 50 mM sodium phosphate buffer pH 7.5, 100 mM NaCl, 298 K; best 20 structures shown as a symmetrical dimer

B1: SP-22 small protein from Haloferax volcanii (natural protein)
chain: MNKAHFEVFVDAADKYRWRLVHDNGNILADSGEGYASKQKAKQGIESVKRNAPDADVIEA
notes: source: heterologously expressed in E. coli, purified (purity above 95 %)
  stoichiometry N: 2
